Data: the DeepSol protein solubility set

Experiment: soluble on expression in E. coli; label from the status in PepcDB or PDB records

Row | Sequence | soluble on expression in E. coli
1 | MSQPYSAVADATGKAYVDIRVCDLLVQQGNMPKGLDSDFQIDGLYVVLRCQEDVRRTSCLWSTAPGACATELQSAAMQLGAAAGAYEAQSDDALVWNEMFRFVVPPALPLSTPAISPRAPHSPPSADGGDPQGGFCAPYTPPLPLSGSASGVAGGLHDIPGGIALPMSTAASGGMRAAGSSGFPVPYTPQPSSLAISTPPLHSAAAQKQPSGGGNGARATEAVASHASLFYPTIELELWRSAPLSENLLGRYKYHVPMELMQGGYALSNLDAVVERVVLLRTKDAPSIMGNLYGWSGHRLSLRLRVQAVGLAPLMAAWSPQQGSEATMTAASTIGSAAYPAPFPTGMLGNTVTGAPPYVAAGVYGAPLGTLNPVLVNLLAPLGVPTGGSGAGQLAPTVMMSMPGGMGGDNLHKPGQPPFFSMFPPASEAPADVGGKMFHPHLPGVLPATPQSSGQGILGDGDLTWQSSTTQPTVYPPYRLPR | not soluble
2 | MGCLGNSKTEDQRNEEKAQREANKKIEKQLQKDKQVYRATHRLLLLGAGESGKSTIVKQMRILHVNGFNGEGGEEDPQAARSNSDGEKATKVQDIKNNLKEAIETIVAAMSNLVPPVELANPENQFRVDYILSVMNVPDFDFPPEFYEHAKALWEDEGVRACYERSNEYQLIDCAQYFLDKIDVIKQDDYVPSDQDLLRCRVLTSGIFETKFQVDKVNFHMFDVGGQRDERRKWIQCFNDVTAIIFVVASSSYNMVIREDNQTNRLQEALNLFKSIWNNRWLRTISVILFLNKQDLLAEKVLAGKSKIEDYFPEFARYTTPEDATPEPGEDPRVTRAKYFIRDEFLRISTASGDGRHYCYPHFTCAVDTENIRRVFNDCRDIIQRMHLRQYELLGGHHHHHH | soluble
3 | GPGSMSTEDASIAYAKKHKIHHLFELMATKVLLNRPENPFAYLRNLLKDVEESEKNRVPYDPTEVHFNNDVGAAAPAAGNSGGSGAAAPAAALTSAKKEKRTVTLATFGLDRAGKTCALSVLESGEADKKYTPTVGFAPIKFPLDDYNLCVFDLGGAANFRGIWVHYYHDCFGIVYVIDSAASDERVAESLKVLHETLQHPYVKGKPLLVLANKKDLPESRGVGVVPQGFLEEAMGEPGAPHRVLATCAIEDDPVLVEGIEWLLEAVSKEYDTLAKRVAKDSNEVKSEKARQRAARLAAIRGEDR | soluble
4 | MGSDKIHHHHHHMSVNGSQRVDLEVVANLIPPQSRVLDVGSGDGSLLELLQDTKQVDGRGLELSQRGVNECVARGLSVIQGDADKDLEFYPDKGFDFVVLSQTLQATRNPKLVLDELLRIGNRAIVSFPNFGHWRVRLSLFVKGRMPVTQDLPYSWYDTPNIHFCTIRDFVNLCEELGATVEKATALDAAGQKIGLSMPWWFWNFFGQQAVFLLKRN | not soluble
5 | MYDTEIPYEGKISIYTYFCKECGYRKTEVYSDEKRDPKKITIRIENPDDLRIIVYRSRRADVYIPEMEASIDSAEYSNGEITTIEGIIYRIGEKLDLLAADDQNNKKIASLRKRIDGIINGKFESFTLIIMDESGKSVVHS | not soluble
6 | MPYYTNDDNDVDDFTEYDPMPYSGGYDITVTYGRSIPPSDETCYPLSSLSGDAFEYQRPNFSSNHDSSAYDDQALKTEYSSYARPGPVGSGSDFGRKPNSGYGGRTEVEYGRKTESEHGSGYGGRIESDYVKPSYGGHEDDGDDGHKKHSGKDYDDGDEKSKKKEKEKKKDKKKDGNNSEDDEFKKKKKKEQYKEHHDDDDYDEKKKKKKDYNDDDEKKKKKHYNDDDDEKKKKHNYNDDDDEKKKKKEYHDDEDKKKKKHYDNDDDEKKKKKDHRDDDDEKKKKKDKHHKGHD | soluble
7 | MTTYAALLRGINVGGNKKVPMAELRTLLQGLGYGGVATYLQSGNAVFTSDHGDEQSLAAEVGQAIEKRFGFTVDVLVRDHAYLKAVREACPFPAAELEAKQLHVTYFSGPVDAERFASLDQPAFLPEEFRLGDRALYLYAPDGLGRSKLGETLARPRLLKGIVATSRNWNTVVKLEELTGA | not soluble
8 | MTETYVLAESPEFYQDNVTDYTGQISSSDITNIQAAIDDVKASEQKVIFVVFLSSFDGVDPETWTQQALQANGGGNVLIYALAPEERQYGIQGGTQWTDAELDAANNAAFQALSQEDWAGSALALAESVGSSSSSSSGSSSLEHHHHHH | soluble
9 | SLGHWQLASKPTVLKGLPASTGVAIGEFWFDNTQPSLSDVFPSSTLDKEREQELLLVAIERALNDFRRMRKKFDSEINKDALAIFDLFTHLLNDPMLRGDLKKQIEKGDRADWALRQVVETYSNRFARMSDVYLRERAQDIRELGQRLLYFLHNSEQENAAIDRPIILVANELTATLLASVPKEHLLAVVSLEGGANSHAAILSRALGVPAVMGANINTDVVNGKLGIVDGYTGEIFLEPNRQLLREYRSLVSEESELFAMVNKDLA | not soluble
